Target: T1, CLAMP (recombinant full-length) (UniProt Q9V9N4 1-561)
T1 sequence: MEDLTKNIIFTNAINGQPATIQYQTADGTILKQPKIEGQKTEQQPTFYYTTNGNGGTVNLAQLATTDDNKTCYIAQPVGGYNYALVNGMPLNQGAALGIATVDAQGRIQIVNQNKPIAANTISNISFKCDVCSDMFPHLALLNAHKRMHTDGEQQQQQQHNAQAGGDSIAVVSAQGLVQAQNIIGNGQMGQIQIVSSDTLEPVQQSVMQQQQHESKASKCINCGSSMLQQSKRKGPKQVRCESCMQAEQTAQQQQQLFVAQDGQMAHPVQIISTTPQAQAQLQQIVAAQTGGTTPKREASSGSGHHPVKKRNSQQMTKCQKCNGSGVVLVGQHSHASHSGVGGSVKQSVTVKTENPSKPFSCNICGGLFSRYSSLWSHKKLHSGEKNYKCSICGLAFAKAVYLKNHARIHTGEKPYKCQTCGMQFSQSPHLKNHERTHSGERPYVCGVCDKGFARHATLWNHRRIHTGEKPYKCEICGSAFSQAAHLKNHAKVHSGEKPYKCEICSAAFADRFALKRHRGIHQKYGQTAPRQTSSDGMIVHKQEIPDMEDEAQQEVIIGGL
Experiment: EMSA

B1: GA del H3/H4p probe, biotin (198 bp) (dsDNA)
DNA 1: CACAGCACGAAAGTCACTAAAGAACTAATTTCAACGTTTCTGTGTGCCCCTATTTATAGGTAAAACGACAAAAACCCTACGAACGATATGTTCGTTCGCTTTTCGCTCGTCAAATGAAATGGCCTCTGTTTTTTCACCGTCCACGATTGCTATATAAGTAGGTAGCAAATGCTCTGATCGTTTATTGTGTTTTCAAAC
DNA 2: GTTTGAAAACACAATAAACGATCAGAGCATTTGCTACCTACTTATATAGCAATCGTGGACGGTGAAAAAACAGAGGCCATTTCATTTGACGAGCGAAAAGCGAACGAACATATCGTTCGTAGGGTTTTTGTCGTTTTACCTATAAATAGGGGCACACAGAAACGTTGAAATTAGTTCTTTAGTGACTTTCGTGCTGTG
B1: no binding.

From article PMC10723421
